Results published in the supplement of paper PMC7877785.
± gives the uncertainty stated by the source.

Test: self-splicing fitness, log relative to wild type (ln ratio); higher = more splicing; Tetrahymena group I intron in knt gene, E. coli kanamycin selection, DiMSum; sequences stand for … in CUCUCU…GGAGGGAAAAGUUAUCAGGCAUGCACCUGGUAGCUAGUCUUUAAACCAAUAGAUUGCAUCGGUUUAAAAGGCAAGACCGUCAAAUUGCGGGAAAGGGGUCAACAGCCGUUCAGUACCAAGUCUCAGGGGAAACUUUGAGAUGGCCUUGCAAAGGGUAUGGUAAUAAGCUGACGGACAUGGUCCUAACCACGCAGCCAAGUCCUAAGUCAACAGAUCUUCUGUUGAUAUGGAUGCAGUUCACAGACUAAAUGUCGGUCGGGGAAGAUGUAUUCUUCUCAUAAGAUAUAGUCGGACCUCUCCUUAAUGGGAGCUAGCGGAUGAAGUGAUGCAACACUGGAGCCGCUGGGAACUAAUUUGUAUGCGAAAGUAUAUUGAUUAGUUUUGGAGUACUCGUGGUCG
Procedure, shortened: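 Six replicate transformations of E. coli BL21(DE3) with a pET-22b(+) library were grown overnight at 37°C or 30°C. The library randomised all eight P1ex-region intron nucleotides, the intron lying in the knt kanamycin-resistance gene, and plates were LB agar with or without 25 μg/mL kanamycin plus 100 μg/mL carbenicillin, 50 μM IPTG and 0.2% rhamnose. Pooled colonies were amplicon-sequenced on an Illumina HiSeq 2500, and fitness is the DiMSum error-weighted combination of wild-type-normalised replicate fold changes, kanamycin versus none.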

Row | Sequence | self-splicing fitness (ln) (30 °C) | self-splicing fitness (ln) (37 °C)
1 | CAGGAGCAAUAUUACGGCCG | -0.398 ± 0.09 | 0.0497 ± 0.12
2 | AUGGAGCAAUAUUACGGAGU |  | -2.34 ± 0.27
3 | GAGGAGCAAUAUUACGCCGA | -1.95 ± 0.33 | -1.77 ± 0.28
4 | UGGUAGCAAUAUUACGUUCU | -1.48 ± 0.12 | -0.725 ± 0.14
5 | CCUCAGCAAUAUUACGUCAA | -4.15 ± 0.31 | -3.11 ± 0.29
6 | CUGCAGCAAUAUUACGCAAG | -2.58 ± 0.18 | -2.83 ± 0.44
7 | GAGUAGCAAUAUUACGUCGA | -1.43 ± 0.15 | -0.114 ± 0.14
8 | CCAGAGCAAUAUUACGAGCU | -3.54 ± 0.34 | -2.35 ± 0.45
9 | AACAAGCAAUAUUACGCCGC | -3.05 ± 0.31 | -1.94 ± 0.36
10 | CGUCAGCAAUAUUACGAAGA | -2.26 ± 0.19 | -2.09 ± 0.23
11 | AGAGAGCAAUAUUACGGUUU | -1.98 ± 0.19 | -2.58 ± 0.25
12 | AAACAGCAAUAUUACGUCCC | -1.44 ± 0.17 | 0.29 ± 0.17
13 | GCCCAGCAAUAUUACGUUGU | -0.273 ± 0.044 | 0.021 ± 0.056
14 | UGUAAGCAAUAUUACGGGAA | -2.12 ± 0.17 | -2.08 ± 0.18
15 | AGAAAGCAAUAUUACGUCGA | -0.974 ± 0.069 | -0.242 ± 0.08
16 | UUUUAGCAAUAUUACGAAAC |  | -2.4 ± 0.49
17 | CUGAAGCAAUAUUACGUACG | 0.694 ± 0.073 | 0.514 ± 0.09
18 | UGGGAGCAAUAUUACGCUCC |  | -2.7 ± 0.44
19 | UGUGAGCAAUAUUACGACUA | -0.569 ± 0.2 | -1.07 ± 0.19
20 | AGGGAGCAAUAUUACGUGUA | -3.24 ± 0.35 | -3.06 ± 0.31

Row | Sequence | self-splicing fitness (ln) (30 °C) | self-splicing fitness (ln) (37 °C)
21 | AUCCAGCAAUAUUACGAAGU | -1.21 ± 0.079 | -1.2 ± 0.094
22 | GAGCAGCAAUAUUACGAGUG | -2.8 ± 0.17 | -1.09 ± 0.19
23 | UUGAAGCAAUAUUACGGUCA | -0.522 ± 0.075 | -0.262 ± 0.099
24 | GAAUAGCAAUAUUACGUCGG | -3.21 ± 0.12 | -3.19 ± 0.2
25 | CUGGAGCAAUAUUACGGUUU | -2.21 ± 0.15 | -2.43 ± 0.26
26 | CUGUAGCAAUAUUACGAUUG | -1.2 ± 0.23 | 0.185 ± 0.22
27 | CUGAAGCAAUAUUACGGGUG | -0.0462 ± 0.047 | 0.304 ± 0.071
28 | UAGCAGCAAUAUUACGUCGG | -0.706 ± 0.1 | -0.878 ± 0.13
29 | AAGGAGCAAUAUUACGCUUU | -3.83 ± 0.32 | -2.93 ± 0.38
30 | CCAAAGCAAUAUUACGUAGA | -3.5 ± 0.17 | -2.55 ± 0.18
31 | UUCAAGCAAUAUUACGAAAA | -0.341 ± 0.15 | -0.222 ± 0.18
32 | AUUAAGCAAUAUUACGAGGU | -2.83 ± 0.24 | -2.1 ± 0.31
33 | GUGUAGCAAUAUUACGUCUA | -1.13 ± 0.24 | 0.254 ± 0.23
34 | AACCAGCAAUAUUACGUAGG | -2.67 ± 0.089 | -1.79 ± 0.099
35 | CGCGAGCAAUAUUACGGAGC |  | -1.99 ± 0.26
36 | CAUGAGCAAUAUUACGACUA | -2.06 ± 0.27 | 
37 | GUGUAGCAAUAUUACGACGC | -1.8 ± 0.18 | -0.0871 ± 0.22
38 | AGUAAGCAAUAUUACGCGGG | -2.82 ± 0.29 | -2.13 ± 0.29
39 | UAACAGCAAUAUUACGUUCG | -0.514 ± 0.057 | 0.266 ± 0.073
